Laboratory results as given in US20030023032A1.

Biological target: sigma 54 (sigma^54) transcription factor from Vibrio harveyi, product of the rpoN gene (Vibrio harveyi)
Experiment: cell-based or functional assay

Substance | % W.T. Lux (bioluminescence per cell at high cell density); strain JAF548, luxO D47E, wild type rpoN present (% of wild type) | % W.T. Lux; strain BNL244, luxO D47E, rpoN::Cm^r (sigma^54 absent) (% of wild type) | % W.T. Lux; strain BNL244, luxO D47E, rpoN::Cm^r, with Plac-rpoN in trans (sigma^54 restored) (% of wild type) | Siderophore units (chromazurol S assay); strain JAF548, luxO D47E, wild type rpoN present (siderophore units) | Siderophore units; strain BNL244, luxO D47E, rpoN::Cm^r (sigma^54 absent) (siderophore units) | Siderophore units; strain BNL244, luxO D47E, rpoN::Cm^r, with Plac-rpoN in trans (sigma^54 restored) (siderophore units) | % W.T. Lux; strain BNL248, luxN L166R, rpoN::Cm^r (sigma^54 absent) (% of wild type) | % W.T. Lux; strain BNL248, luxN L166R, rpoN::Cm^r, with Plac-rpoN in trans (sigma^54 restored) (% of wild type) | % W.T. Lux; strain JAF549, luxN L166R, wild type rpoN present (% of wild type)
LuxO D47E ("locked" form mimicking activated phospho-LuxO), Vibrio harveyi (from UniProt P0C5S5 1-453) | 0.002 | 77 | 1.4 | 50 | 4 | 25 |  |  | 
phospho-LuxO (wild type LuxO, constitutively phosphorylated in luxN L166R strains), Vibrio harveyi (from UniProt P0C5S5 1-453) |  |  |  |  |  |  | 55 | 1.1 | 0.004
